Experimental data published in PMC5795439.

Columns and labels:
[1] = flow cytometry, surface anti-HA, 293T; conditions: glycan changed form; control: untreated, same construct
[2] = virus release efficiency, p24 western blot, 293T; conditions: glycan changed form; control: untreated, same construct
[3] = anti-HA western blot of 293T lysates; conditions: glycan lost
[4] = flow cytometry, surface anti-HA, 293T
[5] = virus release efficiency, p24 western blot, 293T
[6] = flow cytometry, surface anti-tetherin, HeLa; conditions: glycan changed form; control: untreated HeLa
[7] = immunofluorescence microscopy, anti-tetherin, HeLa; conditions: glycan changed form; control: untreated HeLa
[8] = virus release efficiency, HeLa endogenous tetherin; conditions: glycan changed form; control: untreated HeLa
[9] = glycan lost, control: untreated WT tetherin
[10] = glycan lost, control: wild type
[11] = glycan changed form, control: untreated, same construct

For tetherin: kifunensine (N65A tetherin), the localisation_or_trafficking [1] was “decreases” and the “other: restriction of HIV-1 release” value [2] was “no change”.

For tetherin: kifunensine (N92A tetherin), the localisation_or_trafficking [1] was “decreases” and the “other: restriction of HIV-1 release” value [2] was “no change”.

B1: tetherin: tunicamycin (protein)
parent chain: MASTSYDYCRVPMEDGDKRCKLLLGIGILVLLIIVILGVPLIIFTIKANSEACRDGLRAVMECRNVTHLLQQELTEAQKGFQDVEAQAATCNHTVMALMASLDAEKAQGQKKVEELEGEITTLNHKLQDASAEVERLRRENQVLSVRIADKKYYPSSQDSSSAAAPQLLIVLLGLSALLQ
For B1, the expression_or_secretion ([3]; control: untreated WT tetherin) was “no change”, the localisation_or_trafficking [4, 9] was “decreases” and the “other: restriction of HIV-1 release, fold_change” value [5, 9] was “decreases”.

B2: tetherin: N92A (protein)
parent chain: B1 parent chain
With B2 the expression_or_secretion ([3]; control: wild type) was “no change”, the localisation_or_trafficking [4, 10] was “no change” and the “other: restriction of HIV-1 release” value [5, 10] was “no change”.

B3: tetherin: N65A (protein)
parent chain: B1 parent chain
With B3 the expression_or_secretion ([3]; control: wild type) was “no change”, the localisation_or_trafficking [4, 10] was “no change” and the “other: restriction of HIV-1 release” value [5, 10] was “no change”.

B4: tetherin: kifunensine (protein)
parent chain: B1 parent chain
In the case of B4, the localisation_or_trafficking [6] is reported as “no change”, the localisation_or_trafficking [7] is reported as “no change” and the “other: restriction of HIV-1 release” value [8] is reported as “no change”.

B5: tetherin: kifunensine (WT tetherin) (protein)
parent chain: B1 parent chain
For B5, the localisation_or_trafficking [4, 11] was “decreases” and the “other: restriction of HIV-1 release” value [5, 11] was “no change”.

B6: tetherin: N65,92A (protein)
parent chain: B1 parent chain
For B6, the expression_or_secretion ([3]; control: wild type) was “increases”, the localisation_or_trafficking [4, 10] was “decreases” and the “other: restriction of HIV-1 release” value [5, 10] was “abolishes, there was a small (25%) decrease in VRE at 0.8 μg of input DNA”.
